Results: the supplement of paper PMC5998384

What was measured:
[1] = test system: HeLa Kyoto; experiment: melting temperature (median over replicates), in situ; higher = more thermally stable
[2] = test system: HeLa Kyoto; experiment: thermal stability score vs G1/S (z-score of summed log2 fold changes over temperatures); higher = more thermally stable than in G1/S
[3] = cell cycle stage: early G1 (4.5 h after nocodazole release)
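For melting temperature (median over replicates), in situ in this document: HeLa Kyoto cells synchronized by double thymidine or nocodazole block, proteins quantified by TMT10plex mass spectrometry, three independent biological replicates.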
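For thermal stability score vs G1/S (z-score of summed log2 fold changes over temperatures) in this document: synchronized HeLa Kyoto cells, proteins quantified by TMT10plex mass spectrometry, three biological replicates, mitosis taken 0.5 h after nocodazole release, G1/S directly after double thymidine block.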

Row | Sequence | melting temperature ([1]; cell cycle stage: G1/S) [°C] | melting temperature ([1]; cell cycle stage: mitosis) [°C] | thermal stability score [2, 3] | thermal stability score ([2]; cell cycle stage: mitosis)
1 | MVAPVWYLVAAALLVGFILFLTRSRGRAASAGQEPLHNEELAGAGRVAQPGPLEPEEPRAGGRPRRRRDLGSRLQAQRRAQRVAWAEADENEEEAVILAQEEEGVEKPAETHLSGKIGAKKLRKLEEKQARKAQREAEEAEREERKRLESQREAEWKKEEERLRLEEEQKEEEERKAREEQAQREHEEYLKLKEAFVVEEEGVGETMTEEQSQSFLTEFINYIKQSKVVLLEDLASQVGLRTQDTINRIQDLLAEGTITGVIDDRGKFIYITPEELAAVANFIRQRGRVSIAELAQASNSLIAWGRESPAQAPA [DDRGK1] | 52.9 | 52.9 | -0.767 | -0.701
2 | MEHFDASLSTYFKALLGPRDTRVKGWFLLDNYIPTFICSVIYLLIVWLGPKYMRNKQPFSCRGILVVYNLGLTLLSLYMFCELVTGVWEGKYNFFCQGTRTAGESDMKIIRVLWWYYFSKLIEFMDTFFFILRKNNHQITVLHVYHHASMLNIWWFVMNWVPCGHSYFGATLNSFIHVLMYSYYGLSSVPSMRPYLWWKKYITQGQLLQFVLTIIQTSCGVIWPCTFPLGWLYFQIGYMISLIALFTNFYIQTYNKKGASRRKDHLKDHQNGSMAAVNGHTNSFSPLENNVKPRKLRKD [ELOVL5] | 53.3 | 53.7 | -0.682 | -0.967
3 | MLTTLLPILLLSGWAFCSQDASDGLQRLHMLQISYFRDPYHVWYQGNASLGGHLTHVLEGPDTNTTIIQLQPLQEPESWARTQSGLQSYLLQFHGLVRLVHQERTLAFPLTIRCFLGCELPPEGSRAHVFFEVAVNGSSFVSFRPERALWQADTQVTSGVVTFTLQQLNAYNRTRYELREFLEDTCVQYVQKHISAENTKGSQTSRSYTSLVLGVLVGSFIIAGVAVGIFLCTGGRRC [PROCR] | 59.1 | 57.1 | 1.63 | 0.816
4 | MAFLGLFSLLVLQSMATGATFPEEAIADLSVNMYNRLRATGEDENILFSPLSIALAMGMMELGAQGSTQKEIRHSMGYDSLKNGEEFSFLKEFSNMVTAKESQYVMKIANSLFVQNGFHVNEEFLQMMKKYFNAAVNHVDFSQNVAVANYINKWVENNTNNLVKDLVSPRDFDAATYLALINAVYFKGNWKSQFRPENTRTFSFTKDDESEVQIPMMYQQGEFYYGEFSDGSNEAGGIYQVLEIPYEGDEISMMLVLSRQEVPLATLEPLVKAQLVEEWANSVKKQKVEVYLPRFTVEQEIDLKDVLKALGITEIFIKDANLTGLSDNKEIFLSKAIHKSFLEVNEEGSEAAAVSGMIAISRMAVLYPQVIVDHPFFFLIRNRRTGTILFMGRVMHPETMNTSGHDFEEL [SERPINI1] | 57 | 57.8 | 0.548 | 1.27
5 | MVPGAAGWCCLVLWLPACVAAHGFRIHDYLYFQVLSPGDIRYIFTATPAKDFGGIFHTRYEQIHLVPAEPPEACGELSNGFFIQDQIALVERGGCSFLSKTRVVQEHGGRAVIISDNAVDNDSFYVEMIQDSTQRTADIPALFLLGRDGYMIRRSLEQHGLPWAIISIPVNVTSIPTFELLQPPWTFW [PRADC1] | 53.8 | 52.7 | -2.33 | -2.03
6 | MAVAAAAAAGPVFWRRLLGLLPGRPGLAALLGRLSDRLGRNRDRQRRRSPWLLLAPLLSPAVPQVTSPPCCLCPEGVHRFQWIRNLVPEFGVSSSHVRVLSSPAEFFELMKGQIRVAKRRVVMASLYLGTGPLEQELVDCLESTLEKSLQAKFPSNLKVSILLDFTRGSRGRKNSRTMLLPLLRRFPEQVRVSLFHTPHLRGLLRLLIPERFNETIGLQHIKVYLFDNSVILSGANLSDSYFTNRQDRYVFLQDCAEIADFFTELVDAVGDVSLQLQGDDTVQVVDGMVHPYKGDRAEYCKAANKRVMDVINSARTRQQMLHAQTFHSNSLLTQEDAAAAGDRRPAPDTWIYPLIQMKPFEIQIDEIVTETLLTEAERGAKVYLTTGYFNLTQAYMDLVLGTRAEYQILLASPEVNGFFGAKGVAGAIPAAYVHIERQFFSEVCSLGQQERVQLQEYWRRGWTFHAKGLWLYLAGSSLPCLTLIGSPNFGYRSVHRDLEAQIAIVTENQALQQQLHQEQEQLYLRSGVVSSATFEQPSRQVKLWVKMVTPLIKNFF [PGS1] | 53.2 | 53.2 | 0.0742 | -0.577
7 | MAMWNRPCQRLPQQPLVAEPTAEGEPHLPTGRELTEANRFAYAALCGISLSQLFPEPEHSSFCTEFMAGLVQWLELSEAVLPTMTAFASGLGGEGADVFVQILLKDPILKDDPTVITQDLLSFSLKDGHYDARARVLVCHMTSLLQVPLEELDVLEEMFLESLKEIKEEESEMAEASRKKKENRRKWKRYLLIGLATVGGGTVIGVTGGLAAPLVAAGAATIIGSAGAAALGSAAGIAIMTSLFGAAGAGLTGYKMKKRVGAIEEFTFLPLTEGRQLHITIAVTGWLASGKYRTFSAPWAALAHSREQYCLAWEAKYLMELGNALETILSGLANMVAQEALKYTVLSGIVAALTWPASLLSVANVIDNPWGVCLHRSAEVGKHLAHILLSRQQGRRPVTLIGFSLGARVIYFCLQEMAQEKDCQGIIEDVILLGAPVEGEAKHWEPFRKVVSGRIINGYCRGDWLLSFVYRTSSVQLRVAGLQPVLLQDRRVENVDLTSVVSGHLDYAKQMDAILKAVGIRTKPGWDEKGLLLAPGCLPSEEPRQAAAAASSGETPHQVGQTQGPISGDTSKLAMSTDPSQAQVPVGLDQSEGASLPAAASPERPPICSHGMDPNPLGCPDCACKTQGPSTGLD [TMCO4] |  | 53.7 | -0.364 | 0.512
8 | MAARRRRSTGGGRARALNESKRVNNGNTAPEDSSPAKKTRRCQRQESKKMPVAGGKANKDRTEDKQDGMPGRSWASKRVSESVKALLLKGKAPVDPECTAKVGKAHVYCEGNDVYDVMLNQTNLQFNNNKYYLIQLLEDDAQRNFSVWMRWGRVGKMGQHSLVACSGNLNKAKEIFQKKFLDKTKNNWEDREKFEKVPGKYDMLQMDYATNTQDEEETKKEESLKSPLKPESQLDLRVQELIKLICNVQAMEEMMMEMKYNTKKAPLGKLTVAQIKAGYQSLKKIEDCIRAGQHGRALMEACNEFYTRIPHDFGLRTPPLIRTQKELSEKIQLLEALGDIEIAIKLVKTELQSPEHPLDQHYRNLHCALRPLDHESYEFKVISQYLQSTHAPTHSDYTMTLLDLFEVEKDGEKEAFREDLHNRMLLWHGSRMSNWVGILSHGLRIAPPEAPITGYMFGKGIYFADMSSKSANYCFASRLKNTGLLLLSEVALGQCNELLEANPKAEGLLQGKHSTKGLGKMAPSSAHFVTLNGSTVPLGPASDTGILNPDGYTLNYNEYIVYNPNQVRMRYLLKVQFNFLQLW [PARP2] | 47.1 | 50.5 | 1.04 | 1.69
9 | MSRLLPLLRSRTARSLRPGPAAAAAPRPPSWCCCGRGLLALAPPGGLPGGPRRLGTHPKKEPMEALNTAQGARDFIYSLHSTERSCLLKELHRFESIAIAQEKLEAPPPTPGQLRYVFIHNAIPFIGFGFLDNAIMIVAGTHIEMSIGIILGISTMAAAALGNLVSDLAGLGLAGYVEALASRLGLSIPDLTPKQVDMWQTRLSTHLGKAVGVTIGCILGMFPLIFFGGGEEDEKLETKS [TMEM65] | 55.5 | 55.9 | 0.563 | 0.332
10 | MGKVWKQQMYPQYATYYYPQYLQAKQSLVPAHPMAPPSPSTTSSNNNSSSSSNSGWDQLSKTNLYIRGLPPHTTDQDLVKLCQPYGKIVSTKAILDKTTNKCKGYGFVDFDSPAAAQKAVSALKASGVQAQMAKQQEQDPTNLYISNLPLSMDEQELENMLKPFGQVISTRILRDSSGTSRGVGFARMESTEKCEAVIGHFNGKFIKTPPGVSAPTEPLLCKFADGGQKKRQNPNKYIPNGRPWHREGEVRLAGMTLTYDPTTAAIQNGFYPSPYSIATNRMITQTSITPYIASPVSAYQVQSPSWMQPQPYILQHPGAVLTPSMEHTMSLQPASMISPLAQQMSHLSLGSTGTYMPATSAMQGAYLPQYAHMQTTAVPVEEASGQQQVAVETSNDHSPYTFQPNK [RBMS1] | 53.4 | 52.4 | -0.758 | -1.24
11 | MSEKSVEAAAELSAKDLKEKKEKVEEKASRKERKKEVVEEEENGAEEEEEETAEDGEEEDEGEEEDEEEEEEDDEGPALKRAAEEEDEADPKRQKTENGASA [PTMS] | 55.5 | 51.9 | -1.16 | -2.62
12 | MSEGDSVGESVHGKPSVVYRFFTRLGQIYQSWLDKSTPYTAVRWVVTLGLSFVYMIRVYLLQGWYIVTYALGIYHLNLFIAFLSPKVDPSLMEDSDDGPSLPTKQNEEFRPFIRRLPEFKFWHAATKGILVAMVCTFFDAFNVPVFWPILVMYFIMLFCITMKRQIKHMIKYRYIPFTHGKRRYRGKEDAGKAFAS [RER1] | 55.1 | 55.5 | -0.257 | -1.81
13 | MTSALENYINRTVAVITSDGRMIVGTLKGFDQTINLILDESHERVFSSSQGVEQVVLGLYIVRGDNVAVIGEIDEETDSALDLGNIRAEPLNSVAH [LSM8] | 57.1 | 57.5 | -1.46 | -3.54
